B1: Hairpin Ribozyme (parent)
chain: GUCCUCUUUCACGUGCGCGUGAAAGAGAGAAGUGAACCAGAGAAACACACGUUGUGGUAUAUUACCUGGUA

For 167 variants, self-cleavage results are on record in the RNAGym collection of RNA variant scans (doi:10.7554/elife.80360).

Variants of B1 are the subject of the data set. The data set can be described thus: self-cleavage, relative activity (ratio to wild type); higher = more cleavage; co-transcriptional.
With U14G A45G, the self-cleavage is 0.0744. With U14C U52C the figure was 0.938. With U14G C65U the figure was 0.316; with U14G U20C, 0.992; with U14G U20A, 0.866. Consider U14G G57U, for which the self-cleavage is 0.234. For the variant G15A A45G, the self-cleavage worked out at 0.17. With U14C G21A the figure was 0.865; with U14G U53A, 0.835; with U14C A28U, 0.668. With U14C U70G the figure was 0.679; with U14G U63A, 0.217. On to U14C U63G, for which the self-cleavage was 0.0837. With U14C, the self-cleavage amounted to 0.982.

Regarding U14G, the self-cleavage worked out at 0.813.

As to U14A U63A, the self-cleavage was determined as 0.162.

For the variant U14G A41G, the self-cleavage came out at 0.589. With U14C A49G the figure was 0.553; with G15A G17C, 0.83; with U14C C37G, 0.319. Take U14C C37A: the self-cleavage was 0.245.

Take U14G C37G: the self-cleavage came to 0.276.

In the case of U14G C37A, the self-cleavage is 0.276. As to U14G G29A, the self-cleavage came to 0.0483. With U14G G29U the figure was 0.151. In the case of U14C A45U, the self-cleavage is 0.119. As for U14C A26G, the self-cleavage amounted to 0.919. Consider U14C A26C, for which the self-cleavage came to 0.727. For U14C A26U, the self-cleavage was 0.418. Turning to U14C G25C, the self-cleavage amounted to 0.728. With U14C G25A the figure was 0.734; with U14G A26C, 0.522.

For the variant U14G A26U, the self-cleavage was found to be 0.549. Regarding U14G U33A, the self-cleavage came out at 0.116. For the variant U14G U33G, the self-cleavage worked out at 0.127. With U14G U33C the figure was 0.0267; with U14G A31C, 0.267; with U14C G54U, 0.541.

On to U14C G54A, for which the self-cleavage stood at 0.509. For the variant U14G G54A, the self-cleavage came to 0.439. As for U14C C65U, the self-cleavage amounted to 0.295.

With U14G A22G, the self-cleavage came out at 0.798. Take U14G A22U: the self-cleavage was 0.683. As to G15A A23C, the self-cleavage is 0.877. As to G15A A24C, the self-cleavage was determined as 0.899. For G15A A24G, the self-cleavage was determined as 0.963. In the case of G15A A31U, the self-cleavage was determined as 0.133. With G15A A31G the figure was 0.586; with U14C A23C, 0.693. Take U14G A39U: the self-cleavage came to 0.285.

In the case of U14G G40C, the self-cleavage was found to be 0.111.

Turning to U14G A64C, the self-cleavage was 0.27. As to G15A A49U, the self-cleavage turned out to be 0.149. As for G15A A49G, the self-cleavage is 0.527.

Take G15A C66U: the self-cleavage amounted to 0.35. For the variant U14A G69U, the self-cleavage worked out at 0.205. As to U14A G69C, the self-cleavage was determined as 0.337. G15A C16U: the self-cleavage was found to be 1.01. As for U14C A61G, the self-cleavage amounted to 0.133. In the case of U14C A61C, the self-cleavage was found to be 0.162.

U14G U55G: the self-cleavage amounted to 0.273. As for U14G C48A, the self-cleavage was found to be 0.165. For U14G A23G, the self-cleavage came out at 0.703. For the variant U14A G68A, the self-cleavage turned out to be 0.173. Consider U14A G68U, for which the self-cleavage is 0.307. Take U14G C50U: the self-cleavage was found to be 0.2. On to U14G C50G, for which the self-cleavage came to 0.2. For the variant G15A C18U, the self-cleavage was 1.05. Turning to U14C G27A, the self-cleavage is 0.423. Turning to U14C A24G, the self-cleavage was 0.81. For the variant U14C A24C, the self-cleavage came to 0.943. With U14C A24U, the self-cleavage amounted to 0.545. In the case of U14G U62C, the self-cleavage was 0.213. With U14G G17A the figure was 0.854; with U14G A43U, 0.186; with U14G A43G, 0.0894.

With G15A A47C, the self-cleavage turned out to be 0.302. For U14C G34C, the self-cleavage was 1.5. For U14C A36U, the self-cleavage was found to be 0.844. Take U14C A36C: the self-cleavage was 0.476. For the variant U14C A36G, the self-cleavage came to 1.44. For U14C A22G, the self-cleavage turned out to be 0.864. Regarding U14G A24G, the self-cleavage was 0.747. For the variant U14G U52G, the self-cleavage was determined as 0.507. In the case of G15A A43G, the self-cleavage turned out to be 0.155. On to G15A A43U, for which the self-cleavage is 0.178. With U14C C50A the figure was 0.0893; with U14C G56U, 0.126; with U14C G56C, 0.163.

For U14C A39U, the self-cleavage amounted to 0.387.

Turning to U14G G42C, the self-cleavage turned out to be 0.101. Turning to U14G G51C, the self-cleavage came to 0.734. With G15A A28G the figure was 0.978; with G15A A28C, 0.586; with G15A A59U, 0.213. In the case of G15A A59C, the self-cleavage stood at 0.182. Turning to U14G G56C, the self-cleavage came out at 0.164.

In the case of U14C A31G, the self-cleavage amounted to 0.737. U14A U60A: the self-cleavage worked out at 0.987. Regarding U14A U60C, the self-cleavage was 1.07. On to U14G C46G, for which the self-cleavage is 0.131. With U14G C66A, the self-cleavage was found to be 0.0772.

In the case of U14G A30U, the self-cleavage is 0.175. U14G U70G: the self-cleavage was 0.659.

On to U14G U70C, for which the self-cleavage worked out at 1.13. With U14G G25U the figure was 0.492; with U14G G25C, 0.312. Consider U14G A36G, for which the self-cleavage turned out to be 1.11. With U14C A41U the figure was 1.34; with U14G A59U, 0.183. For U14G A59C, the self-cleavage amounted to 0.0613. Regarding U14C A30C, the self-cleavage is 0.263.

In the case of G15A C37A, the self-cleavage amounted to 0.388. With G15A C37U the figure was 0.699; with G15A C37G, 0.312. Take U14A U53C: the self-cleavage was 1.07. Regarding U14A U53G, the self-cleavage turned out to be 0.899.

Regarding G15A A30G, the self-cleavage amounted to 0.187. With G15A A41U, the self-cleavage amounted to 1.26. With U14C C38G, the self-cleavage stood at 0.246. With U14G G27U the figure was 0.144; with U14C U67C, 0.227. With G15A C38G the figure was 0.297.

Turning to G15A C38A, the self-cleavage came out at 0.148. For U14G G32A, the self-cleavage is 0.191.

As for U14G G32U, the self-cleavage was determined as 0.107. Regarding U14G A47U, the self-cleavage is 0.105. With U14C U62G the figure was 0.218. As to U14C U62C, the self-cleavage was found to be 0.0439. With U14C U62A, the self-cleavage was 0.142. Turning to U14C A64C, the self-cleavage amounted to 0.257. With U14C A64U, the self-cleavage is 0.199.

In the case of U14G C18U, the self-cleavage turned out to be 0.7. With U14C C48A the figure was 0.256; with U14C C48U, 0.117. Consider U14C G29A, for which the self-cleavage came out at 0.0903. As to U14G G15C, the self-cleavage was 0.864. Take U14G A61C: the self-cleavage turned out to be 0.257. With U14G A61U the figure was 0.2. U14G A61G: the self-cleavage was 0.0735. For the variant U14G U58A, the self-cleavage was determined as 0.753. U14C G69A: the self-cleavage is 0.341.

As to U14A U20C, the self-cleavage came to 1. For U14A U20G, the self-cleavage amounted to 0.663. With U14G U67A, the self-cleavage is 0.186. In the case of U14G U67C, the self-cleavage was 0.145. In the case of U14G G69C, the self-cleavage stood at 0.238. Take U14C G32C: the self-cleavage is 0.244. With U14C G32U the figure was 0.138; with U14C A71G, 1.24; with U14C A71C, 1.59. With U14G A49U, the self-cleavage came to 0.0246. With U14C G51A the figure was 0.854; with U14C G51U, 1.07. Consider U14G A71U, for which the self-cleavage was 0.678.

As for G15A A35G, the self-cleavage amounted to 0.934. Consider U14C U60C, for which the self-cleavage amounted to 1.13. With G15A A44U the figure was 0.196; with G15A A44C, 0.143. Consider U14G G34C, for which the self-cleavage was 1.52. For the variant U14A U62C, the self-cleavage was found to be 0.257.

Turning to U14A U62G, the self-cleavage was 0.125. With U14A U55C the figure was 0.206; with U14A U55A, 0.201; with U14G A28C, 0.589. U14G A28G: the self-cleavage was found to be 1.15.

Take G15A A26C: the self-cleavage was determined as 0.93.
